From the supplement of paper PMC10126150
± gives the standard deviation of the averaged measurements.

Test system: ATP
Assay: switch fluorescence ratio, 500 uM ATP over buffer (Cy3 cluster intensity, sum of 5 cycles each) (fold (ratio)); higher = stronger signal-on switching upon ATP binding; sequences stand for … in TCGTCGGCAGCGTCAGATGTGTATAAGAGACAGTTTTTTTTTTTTTTTTTTTTTTTTT…TC
Conditions: aptamer strand: ATP DNA aptamer (quencher-CACCTGGGGGAGTATTGCGGAGGAAGG + anchor), 100 nM annealed; ATP concentration: 500 uM
Method in brief: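 Values give the fluorescence ratio for each switch-domain sequence, averaged from per-cluster ratios of summed target-cycle to summed buffer-cycle Cy3 intensity. The Cy3-labelled switching-strand clusters sat on a modified Illumina MiSeq flow-cell, were annealed to 100 nM quencher-labelled ATP aptamer, and were imaged in selection buffer, then after 15 min with 500 uM ATP at 22 °C. Five cycles ran with NaOH stripping and re-annealing between them, and clusters outside 100-1000 RFU were excluded.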
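Further: ATP exposure 15 min at 22 °C before imaging.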

CTTTAACGGT
switch fluorescence ratio: 1 ± 0.026

TGAGCCGGGT
switch fluorescence ratio: 1.02 ± 0.033

CGGTGGCATA
switch fluorescence ratio: 1.04 ± 0.018

GGCATGTGCG
switch fluorescence ratio: 1.02 ± 0.031

ATTAAAGGGA
switch fluorescence ratio: 1 ± 0.037

CCGTTGCTTT
switch fluorescence ratio: 1.35 ± 0.14

GGTGATGAAA
switch fluorescence ratio: 0.998 ± 0.025

TGTTAACGGT
switch fluorescence ratio: 0.991 ± 0.071

GATATGTGGG
switch fluorescence ratio: 0.986 ± 0.031

GGCTTTCCTG
switch fluorescence ratio: 1.1 ± 0.089

TTGTGCTGGA
switch fluorescence ratio: 1.04 ± 0.029

TATAAAAGAA
switch fluorescence ratio: 1.04 ± 0.053

GTCTTAACGA
switch fluorescence ratio: 0.981 ± 0.015

ACGCGCTTTA
switch fluorescence ratio: 0.99871 ± 0.00033

ACTTGGATGG
switch fluorescence ratio: 0.995 ± 0.028

CCCTGAGGGA
switch fluorescence ratio: 1.18 ± 0.086

GGATTGGGCG
switch fluorescence ratio: 0.986 ± 0.026

TTTTTACTAG
switch fluorescence ratio: 1.007 ± 0.0023

TCTAATACGG
switch fluorescence ratio: 1.04 ± 0.02

AATATGCTTT
switch fluorescence ratio: 1.006 ± 0.0048

GTCGGGCCAG
switch fluorescence ratio: 0.985 ± 0.025

CAAAGGAAGC
switch fluorescence ratio: 1.02 ± 0.05

GATTTTTATA
switch fluorescence ratio: 0.969 ± 0.028

TTGTAATGTT
switch fluorescence ratio: 1.01 ± 0.051

GTCAGCTAAC
switch fluorescence ratio: 1.48 ± 0.053

ATGGGGATGT
switch fluorescence ratio: 1.03 ± 0.079

TTAAGAACAC
switch fluorescence ratio: 1.04 ± 0.037

GGTCTAGTCC
switch fluorescence ratio: 1.018 ± 0.0034

TTTGGCCAAA
switch fluorescence ratio: 1.05 ± 0.046

TATCCATGGG
switch fluorescence ratio: 0.978 ± 0.03

AGGGGGTAGC
switch fluorescence ratio: 0.992 ± 0.047

TACGAGCGAA
switch fluorescence ratio: 1.34 ± 0.014

AGGCAATTGT
switch fluorescence ratio: 1.026 ± 0.01

GAGAAAGCTA
switch fluorescence ratio: 1.031 ± 0.0084

TGACATTTGT
switch fluorescence ratio: 0.965 ± 0.048

CTTGCCGGCG
switch fluorescence ratio: 1.07 ± 0.03

TAATGTGGCC
switch fluorescence ratio: 1.01 ± 0.039

TTTTATTATG
switch fluorescence ratio: 1 ± 0.022

GGGCGGTCGG
switch fluorescence ratio: 1 ± 0.03

GGGTACTTGG
switch fluorescence ratio: 0.99 ± 0.026

CGAGAAGTTC
switch fluorescence ratio: 1.02 ± 0.091

GCTTTTTGTA
switch fluorescence ratio: 0.981 ± 0.032

CTTAGTGTTC
switch fluorescence ratio: 0.992 ± 0.028

AATTTTACGA
switch fluorescence ratio: 1.04 ± 0.024

ATCAGCTGTG
switch fluorescence ratio: 1.02 ± 0.024

ACGGGGGGGC
switch fluorescence ratio: 1.09 ± 0.06

ATAGCTGTTA
switch fluorescence ratio: 0.978 ± 0.05

TGGCAGGGTC
switch fluorescence ratio: 0.9774 ± 0.0077

GACGAGCCTG
switch fluorescence ratio: 0.996 ± 0.015

TTATCCGGAT
switch fluorescence ratio: 0.933 ± 0.11

GGACTTTTGT
switch fluorescence ratio: 0.984 ± 0.02

GGTTCGCGGT
switch fluorescence ratio: 1.02 ± 0.03

TGGAAAGGGA
switch fluorescence ratio: 1.01 ± 0.044

ATTTATTCCG
switch fluorescence ratio: 1.01 ± 0.032

TTTTTGGCAA
switch fluorescence ratio: 2.35 ± 2.2

CCTAATGAA
switch fluorescence ratio: 1.2 ± 0.28

TGAACGGCTT
switch fluorescence ratio: 1.04 ± 0.011

TGTGAAAAAG
switch fluorescence ratio: 0.976 ± 0.053

TAAAAAATTT
switch fluorescence ratio: 1.02 ± 0.035

CAATTTCGTT
switch fluorescence ratio: 1.01 ± 0.021

CAGGGTAGTG
switch fluorescence ratio: 1.01 ± 0.045

GCGTTCAGGT
switch fluorescence ratio: 1.01 ± 0.02

GTGTAAGCAG
switch fluorescence ratio: 0.995 ± 0.01

GGATCCTGGG
switch fluorescence ratio: 0.993 ± 0.022

ATAGGGAGGG
switch fluorescence ratio: 1.012 ± 0.0048

GCAGGGGGAG
switch fluorescence ratio: 1.02 ± 0.0081

TGTCTGCAGC
switch fluorescence ratio: 1.022 ± 0.0085

GACCGATTGT
switch fluorescence ratio: 1.03 ± 0.065

TCTACATGAT
switch fluorescence ratio: 1.05 ± 0.013

CAATTGCTGT
switch fluorescence ratio: 1.01 ± 0.012

GCTCCAGGGG
switch fluorescence ratio: 2.88 ± 2.5

CTGCTGAGGG
switch fluorescence ratio: 0.99 ± 0.013

CTGGTCTTGC
switch fluorescence ratio: 1.04 ± 0.035

GCGTGCGTGT
switch fluorescence ratio: 1.03 ± 0.032

AAGGTAGTGT
switch fluorescence ratio: 0.989 ± 0.028

TTCGGAGTCA
switch fluorescence ratio: 1.1 ± 0.019

ACTTGGCTGT
switch fluorescence ratio: 0.99842 ± 0.00092

TGATTCGTTC
switch fluorescence ratio: 1.04 ± 0.033

GGTGCGCATA
switch fluorescence ratio: 1.03 ± 0.019

GACTATAATT
switch fluorescence ratio: 1.026 ± 0.0032

TTGTTTTCAT
switch fluorescence ratio: 1.04 ± 0.018

GACGGAGGCA
switch fluorescence ratio: 1.03 ± 0.031

CAGTGGGCGG
switch fluorescence ratio: 1.06 ± 0.07

TTAGGGTTTT
switch fluorescence ratio: 1.04 ± 0.067

AATATGGAGC
switch fluorescence ratio: 1.08 ± 0.14

AATTTGAATT
switch fluorescence ratio: 0.98 ± 0.013

ATGTGGTATG
switch fluorescence ratio: 0.984 ± 0.031

TGCGAGTATC
switch fluorescence ratio: 1.02 ± 0.018

ACTGAGGCCT
switch fluorescence ratio: 1.05 ± 0.045

ACCTGTATA
switch fluorescence ratio: 1.054 ± 0.0037

GGTTGAATGT
switch fluorescence ratio: 0.9843 ± 0.0074

GTGTTAATTA
switch fluorescence ratio: 0.989 ± 0.021

TTCTTTTAGG
switch fluorescence ratio: 0.996 ± 0.03

CGGATGAGTG
switch fluorescence ratio: 0.953 ± 0.1

TTAAGTTATT
switch fluorescence ratio: 1.03 ± 0.056

TATGTACGTT
switch fluorescence ratio: 1.04 ± 0.051

TGTTTGGTGT
switch fluorescence ratio: 0.9948 ± 0.005

GCGGAATGCT
switch fluorescence ratio: 1.2 ± 0.32

GTAATTCGGG
switch fluorescence ratio: 0.9809 ± 0.0073

GGGGGGCCGT
switch fluorescence ratio: 0.957 ± 0.025
